Tests used:
His-△237 [1] = molecular target: His-△237 (T. vaginalis); assay: ELISA; G-actin
His-△237 [2] = molecular target: His-△237 (T. vaginalis); assay: ELISA; F-actin

B1: GST-Tvactin (natural protein)
chain: not shown
For B1, the Kd (His-△237 [1]) was 9.01 µM and the Kd (His-△237 [2]) was 10.3 µM.
